How the values were obtained:
[1] = target: SP62-L669S (gp41 652-671)-GTH1 peptide anchored to liposomes (HIV-1); test: BIAcore SPR on liposome-anchored peptide; encounter-docking model A + B <-> AB (encounter) <-> ABx (docked); association of the encounter step
[2] = target: SP62 (gp41 652-671)-GTH1 peptide anchored to liposomes (HIV-1); test: as above
[3] = target: SP62-L669S (gp41 652-671)-GTH1 peptide anchored to liposomes (HIV-1); test: SPR, peptide anchored to phospholipid liposomes
[4] = target: SP62 (gp41 652-671)-GTH1 peptide anchored to liposomes (HIV-1); test: SPR, peptide anchored to phospholipid liposomes
[5] = target: SP62-L669S (gp41 652-671)-GTH1 peptide anchored to liposomes (HIV-1); test: BIAcore SPR on liposome-anchored peptide; encounter-docking model; reverse rate of the docking step
[6] = target: SP62 (gp41 652-671)-GTH1 peptide anchored to liposomes (HIV-1); test: as above
[7] = target: SP62-L669S (gp41 652-671)-GTH1 peptide anchored to liposomes (HIV-1); test: BIAcore SPR on liposome-anchored peptide; encounter-docking model; dissociation of the encounter step
[8] = target: SP62 (gp41 652-671)-GTH1 peptide anchored to liposomes (HIV-1); test: as above
[9] = target: SP62-L669S (gp41 652-671)-GTH1 peptide anchored to liposomes (HIV-1); test: BIAcore SPR on liposome-anchored peptide; encounter-docking model; forward rate of the docking step
[10] = target: SP62 (gp41 652-671)-GTH1 peptide anchored to liposomes (HIV-1); test: as above

2F5 mAb (antibody) showed a ka1 [1] of 498000 M⁻¹ s⁻¹, a ka1 [2] of 931000 M⁻¹ s⁻¹ and a response unit (background subtracted) at 10 seconds after the injection was stopped [3] of 617 RU. It also gave a response unit at 10 seconds after the injection was stopped [4] of 495 RU, a kd2 [5] of 2e-05 s⁻¹ and a kd2 [6] of 0.00037 s⁻¹. The reactivity value in column 'KYNU wt' (KYNU wt) was 3.63, the reactivity value in column 'KYNU mut' (KYNU mut) was 0.465 and the kd1 [7] was 0.00119 s⁻¹. The kd1 [8] was 0.00692 s⁻¹, the ka2 [9] was 0.0054 s⁻¹ and the ka2 [10] was 0.0181 s⁻¹.

From patent US20170014503A1
